Experimental data reported in the supplement of paper PMC12667976.

B1: library; numbered along this chain (parent)
chain: MATDAALRRLLRLHRTEIAVAVDSAFPLLHALADHDVVPEDKFQETLHLKEKEGCPQAFHALLSWLLTQDSTAILDFWRVLFKDYNLERYGRLQPILDSFPKDVDLSQPRKGRKPPAVPKALVPPPRLPTKRKASEEARAAAPAALTPRGTASPGSQLKAKPPKKPESSAEQQRLPLGNGIQTMSASVQRAVAMSSGDVPGARGAVEGILIQQVFESGGSKKCIQVGGEFYTPSKFEDSGSGKNKARSSSGPKPLVRAKGAQGAAPGGGEARLGQQGSVPAPLALPSDPQLHQKNEDECAVCRDGGELICCDGCPRAFHLACLSPPLREIPSGTWRCSSCLQATVQEVQPRAEEPRPQEPPVETPLPPGLRSAGEEVRGPPGEPLAGMDTTLVYKHLPAPPSAAPLPGLDSSALHPLLCVGPEGQQNLAPGARCGVCGDGTDVLRCTHCAAAFHWRCHFPAGTSRPGTGLRCRSCSGDVTPAPVEGVLAPSPARLAPGPAKDDTASHEPALHRDDLESLLSEHTFDGILQWAIQSMARPAAPFPS

Variants of: B1
Assay: AIRE transcriptional activation functional score (insulin promoter-GFP; nonsense median 0, synonymous median 1) (normalised score); higher = higher AIRE activity (more reporter activation)
Details: with insulin promoter-GFP reporter in HEK293
Experimental: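 Deep mutational scan of full-length human AIRE (codon-optimized cDNA, DT-POPCode NNN libraries over three regions) integrated at a Bxb1 landing pad in HEK293 cells carrying an insulin core promoter-GFP reporter at a Flp-In site. Cells were sorted for the top 10% GFP about 14 days after transfection. Variant frequency log-ratios (select vs non-select, TileSeq) were rescaled so that the nonsense median is 0 and the synonymous median is 1, then averaged over biological replicates.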

AIRE transcriptional activation functional score of substitutions, site by site:
L81: A -0.165, R -0.201, N 1.87, F 0.331, T 0.331, G -0.169, M -0.00473, V -0.437, Y 0.0857, P 0.303
W78: D 0.137, R -0.0677, Y 0.346, L 0.134, F 0.409, Q -2.24, V -0.0156, P 0.554, E 0.582, I 0.15, K 0.0822, H 0.363, C 0.126, M 0.308, N -0.791, T 0.642, S 0.301, G 0.214, A 0.0338
K83: I 0.0909, H 0.338, R 0.00955, Q 0.546, E -0.351, G -0.0227, D -0.0712, W 0.152, N 0.0819, P -0.158, V -0.175, S 0.122, A 0.537, C 0.194, T 0.432, F 0.177, Y -0.194, L 0.753, M -0.821
R79: F 0.705, T -2.81, D 0.209, M -0.695, H 1.25, A 0.0777, C 0.278, I 0.217, Q 0.112, L 0.11, W 0.0958, P -0.266, V 0.88, G 0.275, S 0.372
F77: Q -0.44, S -0.182, Y 0.195, P -0.416, R -0.0859, T 0.0954, V 0.192, W -0.255
V80: N -6.41, H -0.971, C -0.468, R -0.324, G 0.653, L 0.613, M 0.629, Y 0.606, F 0.527, E -0.149, I 1.57, A -0.0867, S -0.226
